Measured values taken from PMC13618070 (RNA (New York, N.Y.), 2025).
Where a chain is given by its changes, count along the chain named. Numbers in names are those of the source. Each block holds one binder with its values, some of them ahead of it.

Molecular target: DCR-1•DRH-1 complex (DCR-1•(OSF)DRH-1) (C. elegans, UniProt P34529 1-1910; G5EDI8 1-1037)
Test: pull-down

percent recovery normalized to WT RDE-4: ~72%
B1: RDE-4 truncation R3 (dsRBM3 only, begins with M244) (domain or fragment, C. elegans, UniProt G5EBF5 244-385, looked up)
chain: MVDVIENLEEAEHLLEIQDQASKIKDKHSALIDILSDKKRFSDYSMDFNVLSVSTMGIHQVLLEISFRRLVSPDPDDLEMGAEHTQTEEIMKATAEKEKLRKKNMPDSGPLVFAGHGSSAEEAKQCACKSAIIHFNTYDFTD

percent recovery normalized to WT RDE-4: > 100%
B2: RDE-4 dsRBM1 and dsRBM2 point mutant R1^AAR2^AAR3 (K89A/K90A/K217A/K218A) (natural protein, C. elegans, UniProt G5EBF5 1-385, looked up)
chain: MDLTKLTFESVFGGSDVPMKPSRSEDNKTPRNRTDLEMFLKKTPLMVLEEAAKAVYQKTPTWGTVELPEGFEMTLILNEITVKGQATSAAAARQKAAVEYLRKVVEKGKHEIFFIPGTTKEEALSNIDQISDKAEELKRSTSDAVQDNDNDDSIPTSAEFPPGISPTENWVGKLQEKSQKSKLQAPIYEDSKNERTERFLVICTMCNQKTRGIRSKAADAKNLAAWLMWKALEDGIESLESYDMVDVIENLEEAEHLLEIQDQASKIKDKHSALIDILSDKKRFSDYSMDFNVLSVSTMGIHQVLLEISFRRLVSPDPDDLEMGAEHTQTEEIMKATAEKEKLRKKNMPDSGPLVFAGHGSSAEEAKQCACKSAIIHFNTYDFTD

percent recovery normalized to WT RDE-4: > 100%
B3: RDE-4 dsRBM1 point mutant R1^AAR2R3 (K89A/K90A) (natural protein, C. elegans, UniProt G5EBF5 1-385, looked up)
chain: B2 chain with A217K, A218K

percent recovery normalized to WT RDE-4: > 100%
B4: RDE-4 dsRBM2 point mutant R1R2^AAR3 (K217A/K218A) (natural protein, C. elegans, UniProt G5EBF5 1-385, looked up)
chain: B2 chain with A89K, A90K
